The target of one assay is CCL24 (human) (UniProt O00175).
Sequence of CCL24 (human) (O00175 27-119): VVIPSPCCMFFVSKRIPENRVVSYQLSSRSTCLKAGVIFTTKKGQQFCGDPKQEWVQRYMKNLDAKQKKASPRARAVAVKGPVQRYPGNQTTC
Experiment: not given
Sequence of CCL7 (P80098 24-99): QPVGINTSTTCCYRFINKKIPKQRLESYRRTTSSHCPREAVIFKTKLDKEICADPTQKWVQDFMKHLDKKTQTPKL
Sequence of CCL8 (P80075 24-99): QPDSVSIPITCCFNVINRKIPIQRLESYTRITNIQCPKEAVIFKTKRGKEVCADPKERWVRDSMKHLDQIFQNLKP
Sequence of CCL11 (human) (P51671 24-97): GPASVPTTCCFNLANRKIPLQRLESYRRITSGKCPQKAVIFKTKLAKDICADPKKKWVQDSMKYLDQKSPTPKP
Sequence of CCL11 (P51671 24-97): as above
Sequence of CCL26 (Q9Y258 24-94): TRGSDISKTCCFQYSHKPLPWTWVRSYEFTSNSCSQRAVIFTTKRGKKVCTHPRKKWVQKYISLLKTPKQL
Sequence of CCL3 (P10147 24-92): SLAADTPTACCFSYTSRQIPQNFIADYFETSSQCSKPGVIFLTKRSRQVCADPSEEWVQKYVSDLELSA
Sequence of CCL22 (human) (O00626 25-93): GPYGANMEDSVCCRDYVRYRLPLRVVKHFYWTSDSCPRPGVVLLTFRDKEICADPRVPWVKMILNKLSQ
As for Evasin-4–Fc (Fc fusion), the IC50, inhibition of chemotaxis of L1.2 CCR3 cells to CCL24 (EC80 10 nM) was found to be 642 nM.

Fc–Evasin-4 (Fc fusion) yielded an IC50, inhibition of chemotaxis of L1.2 CCR3 cells to CCL24 (EC80 10 nM) of 113 nM.

For another assay, the target named is CCL5 (wild type) (human) (UniProt P13501).
Sequence of CCL5 (wild type) (human) (P13501 24-91): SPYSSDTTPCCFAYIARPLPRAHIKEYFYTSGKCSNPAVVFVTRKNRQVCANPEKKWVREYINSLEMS
Experiment: not given
Evasin-4–Fc (Fc fusion) showed an IC50, inhibition of chemotaxis of L1.2 CCR5 cells to CCL5 (EC80 1 nM) of 9.6 nM.

A further assay addresses CCL22 (human) (UniProt O00626).
Experiment: not given
Evasin-4–Fc (Fc fusion) registered an IC50, inhibition of chemotaxis of L1.2 CCR4 cells to CCL22 (EC80 1 nM) of 38 nM.

Another assay concerns the target CCL11 (human) (UniProt P51671).
Experiment: not given
Evasin-4–Fc (Fc fusion) registered an IC50, inhibition of chemotaxis of L1.2 CCR3 cells to CCL11 (EC80 1 nM) of 1540 nM.

As for Fc–Evasin-4 (Fc fusion), the IC50, inhibition of chemotaxis of L1.2 CCR3 cells to CCL11 (EC80 1 nM) stood at 88 nM.

Another assay addresses Evasin-4–Fc (Rhipicephalus sanguineus). Put plainly: SPR.
One may read the Kd as a measure of binding affinity in units of concentration. Lower therefore signals higher affinity. In turn, “CCL3 (from UniProt P10147 24-92) (ligand)” yielded a Kd of 6.79 nM.

For “CCL5 E26A (from UniProt P13501 24-91) (ligand)”, the Kd came out at 1.72 nM. This Kd lies about 3.9-fold lower than the previous one.

For the substance “CCL7 (from UniProt P80098 24-99) (ligand)”, the Kd was determined as 0.053 nM.

For “CCL8 (from UniProt P80075 24-99) (ligand)”, the equilibrium dissociation constant (Kd) was found to be 0.015 nM.

Consider “CCL11 (from UniProt P51671 24-97) (ligand)”, for which the Kd was 3.6 nM.

Consider “CCL26 (from UniProt Q9Y258 24-94) (ligand)”, for which the Kd is 15.6 nM.

The target in a further assay is Fc–Evasin-4 (Rhipicephalus sanguineus). Put plainly: SPR. A general note: Surface plasmon resonance follows binding to a sensor surface in real time, without labels.
Turning to “CCL3 (from UniProt P10147 24-92) (ligand)”, the Kd amounted to 0.277 nM.

“CCL5 E26A (from UniProt P13501 24-91) (ligand)” yielded an equilibrium dissociation constant (Kd) of 0.02 nM. Against the preceding substance, the Kd is about 14-fold lower.

The substance “CCL7 (from UniProt P80098 24-99) (ligand)” gave a Kd of 0.134 nM.

In the case of “CCL8 (from UniProt P80075 24-99) (ligand)”, the Kd worked out at 0.088 nM.

“CCL11 (from UniProt P51671 24-97) (ligand)” returned a Kd of 0.099 nM.

Substance “CCL26 (from UniProt Q9Y258 24-94) (ligand)” had a Kd of 17.3 nM.

These data come from article PMC4240464.
